The supplement of paper PMC10567573

B1: VPS39 (parent)
chain: QQVKCIITEEKVCMVCKKKIGNSA
B2: GLTSCR2 (parent)
chain: YNPSFEDHQTLLSAAHEVELQRQK

Variants of: B1
Assay: protein stability index of a GFP-peptide fusion (GPS, HEK-293T) (PSI 1-6); higher = more stable
Settings: c terminus: a fixed tail appended
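Also: lentivirally expressed fusions sorted by FACS into six bins by GFP to DsRed ratio, PSI derived from sequencing read proportions per bin multiplied by bin number.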

Protein stability index, by site and new letter:
V15: H 3.43 | T 3.68 | R 3.07 | F 2.92 | A 3.32 | E 4.38 | D 3.34 | G 2.71 | S 3.74 | Q 2.6 | N 3.08 | W 2.97 | P 3.99 | L 2.82 | C 3.26 | M 2.83 | I 2.27 | K 3.05 | Y 2.17
G21: E 3.32 | F 2.87 | K 3.08 | H 2.93 | D 2.81 | L 2.31 | Y 2.3 | W 1.76 | V 3.1 | R 2.16 | C 3.19 | Q 2.76 | S 2.7 | M 2.13 | N 3.01 | T 2.51 | I 3.17 | A 2.98 | P 2.55
K17: M 2.29 | C 3.34 | G 3.58 | P 3 | H 2.46 | D 3.68 | L 1.42 | T 2.5 | S 2.82 | R 2.27 | N 3.05 | W 2.66 | Y 3.09 | Q 3.11 | I 1.74 | E 3.21 | F 2.85 | V 1.54
S23: I 1.73 | D 3.6 | A 3.52 | C 3.62 | N 2.41 | Y 2.41 | E 4.07 | P 2.4 | V 2.19 | F 1.95 | Q 2.5 | L 1.45 | H 2.98 | R 2.77 | G 3.05 | T 2.78 | K 3.09 | W 1.82
M14: C 4.14 | W 2.02 | N 2.67 | I 2.14 | P 3.15 | F 2.89 | K 3.44 | A 2.49 | H 3.13 | Q 3.06 | Y 2.57 | E 3.61 | T 3.3 | V 2.8
E10: G 2.41 | I 2.34 | L 1.47 | Y 2.65 | K 2.54 | D 1.95 | H 2.13 | A 1.9 | T 2.41 | W 2.44 | R 2.23 | Q 2.29 | N 2.01 | M 2.4 | C 3.05 | F 1.97 | S 2.03 | P 2.69
K11: P 3.15 | D 2.52 | Y 1.77 | E 2.87 | Q 2.84 | A 3.64 | G 2.35 | N 2.89 | F 1.75 | M 1.8 | H 3.3 | V 2.39 | I 2.44 | C 4.08 | T 2.55 | R 2.9 | L 1.87 | W 2.08 | S 2.9
T8: Q 3.34 | K 2.47 | Y 2.6 | W 2.87 | L 2.16 | I 2.12 | N 2.9 | V 2.12 | R 2.45 | P 4.09
C13: G 3.48 | A 3.88 | T 3.83 | S 3.52 | Q 3.78 | R 3.95 | L 3.1 | P 3.78 | H 3.62 | I 3.09 | V 2.59 | Y 2.91 | K 2.82 | F 2.54 | D 4.67 | M 2.98 | E 4.41 | W 2.6 | N 4.4
E9: C 1.8 | Y 1.9 | S 3.77 | W 1.35 | G 2 | D 3.29 | A 2.22 | T 2.08 | V 1.95 | Q 1.85 | P 2.46 | H 1.85 | L 1.73 | R 1.54 | K 2.49 | N 1.87 | F 2.94 | I 1.81 | M 1.33
V12: H 2.64 | M 2.81 | Q 2.5 | R 2.88 | Y 2.31 | D 3.87 | C 2.09 | K 2.94 | N 3.68 | G 3.55 | L 2.86 | S 3.41 | I 3.06 | T 2.69 | F 2.11 | P 3.44 | A 3.41 | E 3.96 | W 1.98
K19: F 1.72 | L 2.56 | R 2.28 | Q 2.19 | Y 2.09 | N 2.15 | T 2.66 | S 2.25 | G 2.48 | D 3.52 | P 2.14 | W 1.76 | H 2.12 | C 3.48 | E 2.89 | V 2.5 | A 2.38 | M 1.67
N22: A 2.21 | F 2 | W 1.81 | I 1.75 | S 2.62 | E 3.33 | T 2.29 | M 2.75 | L 2.57 | K 2.79 | C 2.98 | Y 1.99 | R 1.84 | Q 3.38 | H 2.25 | G 1.42 | D 3.7 | V 2.11
C16: F 3.15 | T 3.72 | S 3.45 | I 2.19 | M 3.13 | Q 3.93 | W 2.5 | K 3.41 | D 4.91 | H 3.79 | P 4.22 | G 4.28 | E 4.29 | L 3.07 | R 4.5 | N 3.88 | A 3.96 | Y 3.69
K18: S 3.09 | I 2.43 | G 2.56 | H 3.24 | P 2.37 | T 2.08 | A 2.88 | V 1.78 | W 1.02 | M 1.57 | Q 2.5 | E 3.09 | Y 1.41 | D 3.4 | R 2.33 | N 2.94 | L 2.16 | F 1.98 | C 2.02
A24: I 2.49 | G 2.29 | N 2.84 | D 3.35 | V 2.24 | L 1.74 | C 3.03 | Y 2.57 | E 2.48 | K 3.03 | P 3.03 | S 2.37 | F 2.1 | W 2.07 | M 2.54 | H 2.23 | T 2.93 | Q 2.79
I20: R 3.26 | K 3.58 | L 3.15 | S 3.67 | V 1.95 | A 3.35 | E 4.03 | F 3.06 | N 2.69 | T 2.89 | M 3.33 | P 3.17 | G 2.79 | C 3.26 | H 4.29 | D 3.51 | Y 3.15 | Q 3.53

Variants of: B2
Assay: as above
Settings: c terminus: a fixed tail appended

Protein stability index, by site and new letter:
Y1: E 4.87 | S 5.38 | K 4.87 | N 4.71 | I 4.74 | D 5.25 | V 5.11 | W 4.16 | H 5.16 | R 5.37 | M 4.96 | C 4.78 | L 5.03 | G 5.36 | F 3.65 | T 4.67 | A 4.93 | Q 5.07 | P 5.16
N2: L 5.05 | I 3.38 | A 2.13 | Q 4.47 | K 4.28 | E 4.46 | C 2.74 | H 2.97 | G 4.39 | M 4.34 | R 4.29 | F 3.81 | D 5.66 | P 4.76
